# Reference: the DeepSol protein solubility set
# Test: soluble on expression in E. coli; label from the status in PepcDB or PDB records
row,Sequence,soluble on expression in E. coli
1,MKVCLQCENFFSSADWACPSCGYQPERLNGIEAHASEFAHGGGGFKPEYFSELSRLEAGNFWFRARNELILWALRTYKPNAGAFLEVGCGTGFVLSGIARACPEIALNGSEIFLAGLFHAAKRVPSTHFMQMDARRVPFVEEFDAIGAFDVLEHIEEDETVLAQLHNAIKPSGVLLLTVPQHPRLWSASDDYACHVRRYTRVEIEQKVLTAGFELLRSSSFVTSLLPVMMLSRVLQKRKTKDFDPAGELKINAALNKVFYGLMMLELAGIRLGMNYPVGGSRLVVAKKQSALEHHHHHH,not soluble
2,MKVGGIEDRQLEALKRAALKACELSYSPYSHFRVGCSILTNNDVIFTGANVENASYSNCICAERSAMIQVLMAGHRSGWKCMVICGDSEDQCVSPCGVCRQFINEFVVKDFPIVMLNSTGSRSKVMTMGELLPMAFGPSHLN,soluble
3,MKVIAFVGKHNVGKTTLIERLIPKLKEKGYRVCYLKHDPKGHGVTDKEGSDTHRISKLVEKLALLSPNRVTYWEWGEFKPLEIVKRFFSDCDIVILEGFKWEEEIPKISVGKVDAKNVILTVDRETPLEDIIKVIESLEDMV,soluble
4,MKVILLITIFLSFYSSAETIVVEDTLFYEVAPTSKDDLLETLNSSSPIREDGNVFHGYTKYEINWRFWWKSNNNQCAFTKVETTLKLKYTMPQLTSSKSDVNVVWSNWYPNLEKHEKGHGKLAKDTAFKIEKDLLSIGPKANCNLLEKAGNKLAYKLMATLKKANKQYDIKTNHGETQNAWLYLHL,not soluble
5,MKVLLIIPAYNEEENILRTIASIETFKQEVTHFQHELDYVVINDGSTDGTKQILEANQINAIHLVLNLGIGGAVQTGYKYALENEYDVAVQFDGDGQHDINSLPILLEPLAEGKCDFSIGSRFIPGNEASFQSTKMRRFGIRLLSFCIRMASGKTIYDVTSGYRAGNRKVIAFFAKRYPTNYPEPESIVHLIKKRFVIVERPVNMMERLGGVSSIRALASVKYMLEVGSAILIAAFMKEGDLEHHHHHH,soluble
6,MKVRILGSGTSTGVPQIGCTCPVCTSADPKDNRLRASAIVETEDARILIDCGPDFRAQVLHLPFEKIDGVLITHEHYDHVGGLDDLRPFCRFGAVPIYAEEYVARALRLRMPYCFVDHRYPGVPDIPLQEIEVGHAFSIHHTEVVPLRVMHGRLPILGYRIGRLGYITDMLTMPEESYEQLEGIDVLIMNALRIAPHPTHQNLEEALKVAERIRAKETYFIHMSHDMGLHKKVEKELPENIHLTYDGMEIIF,not soluble
7,MKVVGLDLGGTKIAAGVFDGKRLLSKVVVPTPKEGGERVAEALAEAAERAEREAGVRGEAIGLGTPGPLDFRRGVIRFAPNIPGVQDFPIRRILEEATGRPVFLENDANAAALAEHHLGAAQGEESSLYLTVSTGIGGGVVLGGRVLRGERGQGGELGHLTLLPGGPACGCGLEGCLEALAAGRALERDATYAFQRPVDTRELFRLFQAGDPKAERLVLQAARYVGIGLASLVKAFDPGVVVLGGGVALNAPEGYWEALLEAYRRYLQGWEAPPLRRARLGAEAGLLGAALTAYLEVKDGSG,soluble
8,MKVVIASDHGGMNIRKELVSLLEELNIEYIDLGCECEAGSVDYPDFAFPAAEMVANGEVDRGILVCGTGIGMSIAANKVNGIRCALVHDTFSARATREHNDTNMLAMGERVIGAGLARDIAKIWLTTEFEGGRHENRVGKIKTYEAK,not soluble
9,MKVYLESFGCSASQASAEIMKASIGKLGHELLSPENAGQAEVYICNSCTVKYTTEQKILYKIRSMGEKGVQVIVSGCMPEVQLEDILHANPEAHILGVNAVSRLGDLLSTIEQRKKTGIPGGERLEIRTSEPQGFLNVPRERSNPNIHICQISQGCNFACSYCIVKHARGKLLSFPPEEIIEDIRSAVADGCREIWLTSQDDSQYGMDTGVKLPELLRAISEIPGDFKVRVGMMNPFSVLPILDDLVDAFDSDKIFKLLHLPIQSASHSVLKKMNRLHKMDSVDEIITKFRAHFEDLSLFTDIIVGFCDETDEDFEETIEWVKKYRPEKINISRYSPRPHTKAFSFRNLDSRISVKRSHQLHKVCEQIKIESKNEMIGWKGRVFVSKYTEIGDVLTRTDSYRPVVISGSDLRPGEYAEVKITGAKPGYFLGKLVSLEHHHHHH,soluble
10,MKWLRLQDLPTDNSFAALPAEFYTRLQPRPPAAPRLLHANAEAAALIGLDPAEFSTQAFLDVFSGHAPLPGGDTLAAVYSGHQFGVWAGQLGEVRGPAGGWELQLKGAGMTPYSRMGDGRAVLRSSVREYLASEAMHGLGIPTTRSLALVVSDDPVMRETVETAAVVTRMAPSFVRFGSFEHWSARRQPEQLRVLADYVIDRFYPECRVAGAGRLDGEHGEILGLLAAVTRRTALLMADWQAVGFCHGVMNTDNMSILGLTLDYGPYGFMDTFQLGHICNHSDSEGRYAWNRQPSVGLWNLYRLASSLHTLAPDPEALRAVLDGYEAVFTQAFHGRMAGKLGLPQFLPEDETLLDDLLQLMHQQGADFTLAFRRLGEAVRGQRQPFEDSFIDRAAAGAWYDRLAARHASDGRAAQARAAAMDEVNPLYVLRNHLAEQAIRAAARGDAGEIDILLKLLRNPYKHQPGYDAYAGLAPDWAAGLEVSCSSLEHHHHHH,not soluble
11,MKWMCSICCAAVLLAGGAAQAEAVPNEPINWGFKRSVNHQPPDAGKQLNSLIEKYDAFYLGNTKEKTIYLTFDNGYENGYTPKVLDVLKKHRVTGTFFVTGHFVKDQPQLIKRMSDEGHIIGNHSFHHPDLTTKTADQIQDELDSVNEEVYKITGKQDNLYLRPPRGVFSEYVLKETKRLGYQTVFWSVAFVDWKINNQKGKKYAYDHMIKQAHPGAIYLLHTVSRDNAEALDDAITDLKKQGYTFKSIDDLMFEKEMRLPSL,soluble
12,MKYILVTGGVISGIGKGIIASSIGTILKSCGLRVTAIKIDPYINIDAGTFSPYEHGEVFVLNDGGEVDLDLGNYERFLDINLYKDNNITTGKIYQHVINKERRGDYLGKTVQVVPHITDAVQEWVMNQAKVPVDGNKEEPQICVIELGGTIGDIEGMPFVEAFRQFQFKAKRENFCNIHVSLVPQLSATGEQKTKPTQNSVRALRGLGLSPDLIVCRSSTPIEMAVKEKISMFCHVNPEQVICIHDVSSTYRVPVLLEEQSIVKYFKERLHLPIGAHHHHHH,soluble
13,MKYMITSKGDEKSDLLRLNMIAGFGEYDMEYDDVEPEIVISIGGDGTFLSAFHQYEERLDEIAFIGIHTGHLGFYADWRPAEADKLVKLLAKGEYQKVSYPLLKTTVKYGIGKKEATYLALNESTVKSSGGPFVVDVVINDIHFERFRGDGLCMSTPSGTTAYNKSLGGALMHPSIEAMQLTEMASINNRVYRTIGSPLVFPKHHVVSLQPVNDKDFQISVDHLSILHRDVQEIRYEVSAKKIHFARFRSFPFWRRVHDSFIEDLEHHHHHH,soluble
14,MKYQIVTSGFGGQGAVFIVKLLSLCAGIKGEKYLGTENHGMSQRGGSVSCFIKVGDFYTPVIEENQADMIIALEQNEGLRTLQYLKKGGKLIVNADDSLPRLEGCEAIKVDAFSLAKEGRFPAQALNAFMVGVASMQSGFPFDEETLKKGLEMINPKVAESNIQVFELGRACAPRS,not soluble
15,MKYTVITGASSGIGYAAALAFASRGKNLVLVARRQEELNGLKLKINEMHPELDVVIRKTDLSVTEDVYKLYESLQAFQIETWINNAGFGNFASIAEQNLNKIETMLHVNIEALTILSSLFVRDYSMIDGTQLINVSSGGGYTIVADAVTYCATKFYVSAFTEGLSHELKEQGAKLQAKVLAPAATETEFAKRSFDIDEFQYDNVVPKFHTAKQMAQFMLDLYDNDKVVGIVDGLTYNYELKDPLYNFAVRQKNSNS,not soluble
16,MLAQQRLDFEFRPMTAADVGNAHELSIALKWPHRLEDWAMLQRVAQGFVAVRNGRLIGSAFACHQGEFSTIGLVIVSDDYQGKGIGRKLMELAVGSIPPRTAILNATLAGAPLYEKMGFVSFGEIQQRQGQAQLPDATLLTAEESCRVLSEADHDRVLELGNAGSGLDRSVTLGDLLNNLEHAVGIDRDGQLQAFALLRPFGRGLCIGPVVAQTVEQARHMIEHLLARVPYAFVRIDIPTHCGLADWLEAAGLKRVDSVTCMSMGAVPQAREGVSQFALITQAIG,not soluble
